The assay deals with T1, GST-MP (MONOPTEROS / AUXIN RESPONSE FACTOR5) (Arabidopsis thaliana, UniProt P93024 1-902).
T1 sequence (looked up): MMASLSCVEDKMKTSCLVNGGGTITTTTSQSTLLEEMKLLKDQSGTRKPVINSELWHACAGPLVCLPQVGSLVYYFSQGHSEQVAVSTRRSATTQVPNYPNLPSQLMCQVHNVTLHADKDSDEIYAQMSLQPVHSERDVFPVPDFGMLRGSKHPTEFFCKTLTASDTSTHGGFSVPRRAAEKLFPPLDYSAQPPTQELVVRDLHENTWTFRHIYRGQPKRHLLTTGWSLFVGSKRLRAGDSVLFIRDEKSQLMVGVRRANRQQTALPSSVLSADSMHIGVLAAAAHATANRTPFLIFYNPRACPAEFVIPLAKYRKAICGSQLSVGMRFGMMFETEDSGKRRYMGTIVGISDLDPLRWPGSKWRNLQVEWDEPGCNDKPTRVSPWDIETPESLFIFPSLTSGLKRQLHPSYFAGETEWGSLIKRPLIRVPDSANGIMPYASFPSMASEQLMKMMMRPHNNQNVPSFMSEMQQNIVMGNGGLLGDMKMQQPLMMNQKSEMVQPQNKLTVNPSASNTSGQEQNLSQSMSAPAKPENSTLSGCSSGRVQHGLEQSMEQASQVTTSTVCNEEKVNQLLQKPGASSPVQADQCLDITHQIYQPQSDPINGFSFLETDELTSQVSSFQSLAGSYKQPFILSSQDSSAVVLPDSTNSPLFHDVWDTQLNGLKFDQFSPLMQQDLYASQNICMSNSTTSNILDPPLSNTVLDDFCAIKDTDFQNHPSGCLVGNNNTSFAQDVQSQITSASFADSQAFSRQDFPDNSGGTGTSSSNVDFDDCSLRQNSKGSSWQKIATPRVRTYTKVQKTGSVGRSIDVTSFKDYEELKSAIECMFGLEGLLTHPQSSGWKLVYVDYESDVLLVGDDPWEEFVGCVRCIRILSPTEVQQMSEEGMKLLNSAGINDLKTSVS
In words: pull-down.

B1: 6xHis-MBP-DRNL (DORNROSCHEN-LIKE) (natural protein)
chain: not shown
With B1, the binding result is listed as “binds”.

B2: 6xHis-MBP-DRN (residues 1 to 200, protein-protein interaction domain) (domain or fragment)
chain: not shown
Regarding B2, the binding result was “binds”.

For the origin of these results see PMC10334806 (Proceedings of the National Academy of Sciences of the …, 2023).
